These results are taken from PMC6005658 (2017).

Like-named read-outs stand apart in the source and are kept apart here. *1 amine or outer side, *2 acyl side, *3 side chain or, on linkers, in order; H or OH if unused. Bridges are numbered along the chain shown (N, C = ends). [ ]: non-standard residue; d: D form. Tyr(All) = C=CCOc1ccc(C[C@H](N[*:1])C(=O)[*:2])cc1

Holding throughout (test): radioligand binding
The target of test [1] is T1, arodyn analog 4 (staple 2-3; also: RCM olefin trans).
T1 chain: Ac-F[Tyr(All)][Tyr(All)]RLRRIRPK-NH2

In test [2] the target is T2, arodyn analog 5.
T2 chain: Ac-[Tyr(All)]FFRLRRIRPK-NH2

The target in test [3] is T3, arodyn analog 7 (SMILES …).
T3 chain: Ac-FF[Tyr(All)]RLRRIRPK-NH2

For test [4], the target named is T4, arodyn analog 3 (staple 1-2; also: RCM olefin trans).
T4 chain: Ac-[Tyr(All)][Tyr(All)]FRLRRIRPK-NH2

Test [5] deals with T5, arodyn analog 6 (SMILES …).
T5 chain: Ac-F[Tyr(All)]FRLRRIRPK-NH2

Test [6] concerns the target T1, arodyn analog 4.
For test [7], the target named is T2, arodyn analog 5.
For test [8], the target named is T3, arodyn analog 7.
Test [9] addresses T4, arodyn analog 3.
Test [10] deals with T5, arodyn analog 6.

B1: κ opioid receptor (protein)
chain: MESPIQIFRGEPGPTCAPSACLLPNSSSWFPNWAESDSNGSVGSEDQQLEPAHISPAIPVIITAVYSVVFVVGLVGNSLVMFVIIRYTKMKTATNIYIFNLALADALVTTTMPFQSAVYLMNSWPFGDVLCKIVISIDYYNMFTSIFTLTMMSVDRYIAVCHPVKALDFRTPLKAKIINICIWLLASSVGISAIVLGGTKVREDVDVIECSLQFPDDEYSWWDLFMKICVFVFAFVIPVLIIIVCYTLMILRLKSVRLLSGSREKDRNLRRITKLVLVVVAVFIICWTPIHIFILVEALGSTSHSTAVLSSYYFCIALGYTNSSLNPVLYAFLDENFKRCFRDFCFPIKMRMERQSTNRVRNTVQDPASMRDVGGMNKPV
Regarding B1, the Ki in the test with arodyn analog 4 [1] turned out to be 55.4 nM; with arodyn analog 5 [2], 83.3 nM; with arodyn analog 7 [3] it was 134 nM; with arodyn analog 3 [4], 71.7 nM; with arodyn analog 6 [5] it was 66.3 nM.

B2: μ opioid receptor (protein)
chain: MDSSTGPGNTSDCSDPLAQASCSPAPGSWLNLSHVDGNQSDPCGLNRTGLGGNDSLCPQTGSPSMVTAITIMALYSIVCVVGLFGNFLVMYVIVRYTKMKTATNIYIFNLALADALATSTLPFQSVNYLMGTWPFGTILCKIVISIDYYNMFTSIFTLCTMSVDRYIAVCHPVKALDFRTPRNAKIVNVCNWILSSAIGLPVMFMATTKYRQGSIDCTLTFSHPTWYWENLLKICVFIFAFIMPVLIITVCYGLMILRLKSVRMLSGSKEKDRNLRRITRMVLVVVAVFIVCWTPIHIYVIIKALITIPETTFQTVSWHFCIALGYTNSCLNPVLYAFLDENFKRCFREFCIPTSSTIEQQNSTRVRQNTREHPSTANTVDRTNHQLENLEAETAPLP
Turning to B2, the Ki with arodyn analog 4 [6] amounted to 903 nM; with arodyn analog 5 [7], 1170 nM; with arodyn analog 7 [8], 1430 nM; with arodyn analog 3 [9], 1920 nM; with arodyn analog 6 [10] it was 1460 nM.
